pKd: −log10 of the molar value.
Molecular target: SARS-CoV-2 S protein trimer, His Tag (in house, EXPI293F cells) (SARS-CoV-2) (UniProt P0DTC2)

Recombinant human mannose binding lectin (MBL), sequence (P11226 21-248 limits assumed): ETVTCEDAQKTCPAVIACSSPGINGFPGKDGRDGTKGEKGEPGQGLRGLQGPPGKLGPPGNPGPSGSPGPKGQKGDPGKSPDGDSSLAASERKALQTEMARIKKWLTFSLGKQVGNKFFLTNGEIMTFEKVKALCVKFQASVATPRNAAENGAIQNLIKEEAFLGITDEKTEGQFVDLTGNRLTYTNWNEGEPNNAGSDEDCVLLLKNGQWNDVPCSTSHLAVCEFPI

Substance: Recombinant human mannose binding lectin (MBL) (from UniProt P11226 21-248)
- pKd: 7.47
- koff: 0.00073 s⁻¹
- kon: 21000 M⁻¹ s⁻¹
